Measured values published in patent US9018171B2, “Uses of an immunomodulatory protein (GMI) from Ganoderma microsporum” (Mycomagic Biotechnology Co., Ltd., priority 2010, dated 2015).
“Also recorded” adds a separate entry of the source. Read-outs that look alike come from different tables or passages of the source.

Legend:
NCI-H23 = assay type: cell-based
HOP-92 = assay type: cell-based; settings: HOP-92, one dose
Cdc42 = assay: Rac1 and Cdc42 activity assay (pull-down); assay type: cell-based, human; settings: A549 cells, GMI 4, 16 μg/ml 24 h, 10 ng/mL EGF 3 min
Description: (§1) A549 cells were seeded onto 100 mm plates and cultured to around 80% confluence. The cells were then treated with various doses of GMI (4, 16 μg/ml). […] A549 cells were pretreated with various concentrations of GMI for 24 h before being stimulated with 10 ng/mL EGF for 3 min. After that, cells were washed with cold PBS and lysated on the dish in RIPA buffer. Active GTP-bound Rac1 or Cdc42 was pulled down using the GST-PBD fusion protein of PAK1 immobilized on glutathione beads and active Rac1 and Cdc42 were detected with anti-Rac1 and anti-Cdc42 antibodies.
(§2) Active Rac1 and Cdc42 were determined by pull-down assay (Binker et al., 2009, Biochem Biophys Res Commun, 379, 445-450). Serum-starved A549 cells were or were not stimulated for 3 min with EGF and then collected in 800 μl of ice-cold lysis-buffer. Lysates were centrifuged to remove cellular debris. From each supernatant, 5 μl were taken out to measure protein content using Protein Assay Kit (Bio-Rad, Hercules, Calif.). Twenty μl were removed to determine total Rac1 in total lysate, and the remaining volume was used for the pull-down assay. Lysates containing equal amounts of proteins were then mixed with 15 μg of GST-PAK-PBD-beads (Pierce). Samples for total Rac1 and Cdc42 in total lysate and the pelleted beads were diluted in Laemmli sample-buffer and boiled. The proteins were separated using SDS-PAGE (12% gel). […]

Rac1 = Rac1 and Cdc42 activity assay (pull-down); assay type: cell-based, human; settings: A549 cells, GMI 4, 16 μg/ml 24 h, 10 ng/mL EGF 3 min
Description: as §1, §2

SF-295 = assay: NCI60 in vitro screening, CNS Cancer; assay type: cell-based
OVCAR-3 = assay: NCI60 in vitro screening, Ovarian Cancer; assay type: cell-based
UACC-257 = assay: NCI60 in vitro screening, Melanoma; assay type: cell-based
OVCAR-4 = assay: NCI60 in vitro screening, Ovarian Cancer; assay type: cell-based
DU-145 = assay: NCI60 in vitro screening, Prostate Cancer; assay type: cell-based
M14 = assay: NCI60 in vitro screening, Melanoma; assay type: cell-based
NCI/ADR-RES = assay: NCI60 in vitro screening, Ovarian Cancer; assay type: cell-based
HOP-62 = assay type: cell-based
RPMI-8226 = assay: NCI60 in vitro screening, Leukemia; assay type: cell-based
HS 578T = assay: NCI60 in vitro screening, Breast Cancer; assay type: cell-based
NCI-H522 = assay type: cell-based
SNB-75 = assay: NCI60 in vitro screening, CNS Cancer; assay type: cell-based

B1: GMI: immunomodulatory protein from Ganoderma microsporum, amino acid sequence SEQ ID NO: 3, manufactured by Mycomagic Biotechnology Co., Ltd. (protein, listed as Ganoderma microsporum)
chain: MSDTALIFTLAWNVKQLAFDYTPNWGRGRPSSFIDTVTFPTVLTDKAYTYRVVVSGKDLGVRPSYAVESDGSQKINFLEYNSGYGIADTNTIQVYVIDPDTGNNFIVAQWN
NCI-H23; NCI-H23
  TGI: >1.25E2
NCI-H23; NCI-H23, Log10 Concentration 0.1
  Percent Growth: 106%
NCI-H23; NCI-H23, Log10 Concentration 1.1
  Percent Growth: 89%
NCI-H23; NCI-H23, Log10 Concentration 2.1
  Percent Growth: 66%
NCI-H23; NCI-H23, Log10 Concentration −0.9
  Percent Growth: 101%
NCI-H23; NCI-H23, Log10 Concentration −1.9
  Percent Growth: 99%
NCI-H23; NCI-H23, one dose
  Growth Percent: 91.82%
HOP-92
  Growth Percent: 22.29%
Cdc42
  EGF-promoted Cdc42 activity: inhibits Cdc42 activation; also recorded: reduced EGF-promoted Cdc42 activity in a dose-dependent manner
Rac1
  EGF-promoted Rac1 activity: little effect on Rac1; also recorded: little reduction in Rac1 activity
SF-295; SF-295
  TGI: >1.25E2
SF-295; SF-295, Log10 Concentration 0.1
  Percent Growth: 101%
SF-295; SF-295, Log10 Concentration 1.1
  Percent Growth: 93%
SF-295; SF-295, Log10 Concentration 2.1
  Percent Growth: 22%
SF-295; SF-295, Log10 Concentration −0.9
  Percent Growth: 100%
SF-295; SF-295, Log10 Concentration −1.9
  Percent Growth: 103%
SF-295; SF-295, one dose
  Growth Percent: 70.58%
SF-295; SF-295, in µg/mL
  GI50: 5.07E1
OVCAR-3; OVCAR-3
  TGI: >1.25E2
OVCAR-3; OVCAR-3, Log10 Concentration 0.1
  Percent Growth: 108%
OVCAR-3; OVCAR-3, Log10 Concentration 1.1
  Percent Growth: 85%
OVCAR-3; OVCAR-3, Log10 Concentration 2.1
  Percent Growth: 26%
OVCAR-3; OVCAR-3, Log10 Concentration −0.9
  Percent Growth: 102%
OVCAR-3; OVCAR-3, Log10 Concentration −1.9
  Percent Growth: 99%
OVCAR-3; OVCAR-3, one dose
  Growth Percent: 94.57%
OVCAR-3; OVCAR-3, in µg/mL
  GI50: 4.90E1
UACC-257; UACC-257
  TGI: >1.25E2
UACC-257; UACC-257, Log10 Concentration 0.1
  Percent Growth: 98%
UACC-257; UACC-257, Log10 Concentration 1.1
  Percent Growth: 37%
UACC-257; UACC-257, Log10 Concentration 2.1
  Percent Growth: 52%
UACC-257; UACC-257, Log10 Concentration −0.9
  Percent Growth: 99%
UACC-257; UACC-257, Log10 Concentration −1.9
  Percent Growth: 103%
UACC-257; UACC-257, one dose
  Growth Percent: 89.25%
OVCAR-4; OVCAR-4
  TGI: >1.25E2
OVCAR-4; OVCAR-4, Log10 Concentration 0.1
  Percent Growth: 102%
OVCAR-4; OVCAR-4, Log10 Concentration 1.1
  Percent Growth: 107%
OVCAR-4; OVCAR-4, Log10 Concentration 2.1
  Percent Growth: 62%
OVCAR-4; OVCAR-4, Log10 Concentration −0.9
  Percent Growth: 102%
OVCAR-4; OVCAR-4, Log10 Concentration −1.9
  Percent Growth: 103%
OVCAR-4; OVCAR-4, one dose
  Growth Percent: 98.08%
DU-145; DU-145
  TGI: >1.25E2
DU-145; DU-145, Log10 Concentration 0.1
  Percent Growth: 109%
DU-145; DU-145, Log10 Concentration 1.1
  Percent Growth: 71%
DU-145; DU-145, Log10 Concentration 2.1
  Percent Growth: 9%
DU-145; DU-145, Log10 Concentration −0.9
  Percent Growth: 99%
DU-145; DU-145, Log10 Concentration −1.9
  Percent Growth: 101%
DU-145; DU-145, one dose
  Growth Percent: 39.22%
DU-145; DU-145, in µg/mL
  GI50: 2.76E1
M14; M14
  TGI: >1.25E2
M14; M14, Log10 Concentration 0.1
  Percent Growth: 106%
M14; M14, Log10 Concentration 1.1
  Percent Growth: 76%
M14; M14, Log10 Concentration 2.1
  Percent Growth: 1%
M14; M14, Log10 Concentration −0.9
  Percent Growth: 96%
M14; M14, Log10 Concentration −1.9
  Percent Growth: 98%
M14; M14, one dose
  Growth Percent: 94.87%
M14; M14, in µg/mL
  GI50: 2.78E1
NCI/ADR-RES
  TGI: >1.25E2
NCI/ADR-RES; Log10 Concentration 0.1
  Percent Growth: 105%
NCI/ADR-RES; Log10 Concentration 1.1
  Percent Growth: 81%
NCI/ADR-RES; Log10 Concentration 2.1
  Percent Growth: 19%
NCI/ADR-RES; Log10 Concentration −0.9
  Percent Growth: 100%
NCI/ADR-RES; Log10 Concentration −1.9
  Percent Growth: 102%
NCI/ADR-RES; in µg/mL
  GI50: 3.94E1
HOP-62; HOP-62
  TGI: 5.99E1
HOP-62; HOP-62, Log10 Concentration 0.1
  Percent Growth: 102%
HOP-62; HOP-62, Log10 Concentration 1.1
  Percent Growth: 73%
HOP-62; HOP-62, Log10 Concentration 2.1
  Percent Growth: −34%
HOP-62; HOP-62, Log10 Concentration −0.9
  Percent Growth: 102%
HOP-62; HOP-62, Log10 Concentration −1.9
  Percent Growth: 104%
HOP-62; HOP-62, one dose
  Growth Percent: 53.89%
HOP-62; HOP-62, in µg/mL
  GI50: 2.03E1
RPMI-8226; RPMI-8226
  TGI: >1.25E2
RPMI-8226; RPMI-8226, Log10 Concentration 0.1
  Percent Growth: 105%
RPMI-8226; RPMI-8226, Log10 Concentration 1.1
  Percent Growth: 100%
RPMI-8226; RPMI-8226, Log10 Concentration 2.1
  Percent Growth: 72%
RPMI-8226; RPMI-8226, Log10 Concentration −0.9
  Percent Growth: 102%
RPMI-8226; RPMI-8226, Log10 Concentration −1.9
  Percent Growth: 105%
RPMI-8226; RPMI-8226, one dose
  Growth Percent: 96.01%
HS 578T
  TGI: >1.25E2
HS 578T; Log10 Concentration 0.1
  Percent Growth: 108%
HS 578T; Log10 Concentration 1.1
  Percent Growth: 96%
HS 578T; Log10 Concentration 2.1
  Percent Growth: 64%
HS 578T; Log10 Concentration −0.9
  Percent Growth: 106%
HS 578T; Log10 Concentration −1.9
  Percent Growth: 104%
NCI-H522; NCI-H522
  TGI: 1.25E2
NCI-H522; NCI-H522, Log10 Concentration 0.1
  Percent Growth: 105%
NCI-H522; NCI-H522, Log10 Concentration 1.1
  Percent Growth: 98%
NCI-H522; NCI-H522, Log10 Concentration 2.1
  Percent Growth: 53%
NCI-H522; NCI-H522, Log10 Concentration −0.9
  Percent Growth: 100%
NCI-H522; NCI-H522, Log10 Concentration −1.9
  Percent Growth: 95%
NCI-H522; NCI-H522, one dose
  Growth Percent: 125.90%
SNB-75; SNB-75
  TGI: 1.45E1
SNB-75; SNB-75, Log10 Concentration 0.1
  Percent Growth: 97%
SNB-75; SNB-75, Log10 Concentration 1.1
  Percent Growth: 5%
SNB-75; SNB-75, Log10 Concentration 2.1
  Percent Growth: −68%
SNB-75; SNB-75, Log10 Concentration −0.9
  Percent Growth: 101%
SNB-75; SNB-75, Log10 Concentration −1.9
  Percent Growth: 95%
SNB-75; SNB-75, one dose
  Growth Percent: −45.73%
SNB-75; SNB-75, in µg/mL
  GI50: 4.04E0
  LC50: 7.14E1
